{
  "source": "IntAct's records for PubMed 24165923",
  "molecular_target": "rspo1_human RSPO1 (UniProt Q2MKA7)",
  "sequence (Q2MKA7 whole entry)": "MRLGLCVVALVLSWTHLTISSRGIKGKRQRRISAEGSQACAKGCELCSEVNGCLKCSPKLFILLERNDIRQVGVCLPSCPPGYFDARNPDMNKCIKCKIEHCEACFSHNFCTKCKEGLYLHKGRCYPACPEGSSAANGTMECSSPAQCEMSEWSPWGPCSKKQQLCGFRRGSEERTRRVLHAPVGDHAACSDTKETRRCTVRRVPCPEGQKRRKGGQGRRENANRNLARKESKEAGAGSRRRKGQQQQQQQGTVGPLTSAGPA",
  "data": [
    {"substance": "E3 ubiquitin-protein ligase ZNRF3 (Homo sapiens), Q9ULT6 P103A", "values": [
      {"measurement": "effect of a mutation on the interaction", "result": "disrupting interaction"}
    ]}
  ]
}
